Common to all, as to assay: cell_activity
The test system of series [1] is ZFN 44945 (BCL11A-XL) (synthetic). To be noted: pair with 44944; K562.
Series [2] concerns ZFN 43544 (beta-globin IVS1.1) (synthetic). To be noted: pair with 43545; CD34+ cells.
The test system of series [3] is ZFN 36021 (KLF1 exon 1) (synthetic). Conditions: pair with 36004; CD34+ cells; 2.2X gamma mRNA.
Series [4] deals with ZFN 34678 (BCL11A exon 4) (synthetic). Conditions: pair with 34642; CD34+ cells; 3.52X gamma mRNA.
For series [5], the system named is TALEN 102321 (gamma globin promoter) (synthetic). Conditions: pair with 102316; K562, Cel-I.
Series [6] concerns TALEN 102320 (gamma globin promoter) (synthetic). Conditions: pair with 102315; K562, Cel-I.
The subject of series [7] is TALEN 102318 (gamma globin promoter) (synthetic). Conditions: pair with 102314; K562, Cel-I; 2.14X gamma mRNA in CD34+.
The test system of series [8] is ZFN 43545 (beta-globin IVS1.1) (synthetic). To be noted: pair with 43544; CD34+ cells.
Series [9] deals with ZFN 34642 (BCL11A exon 4) (synthetic). Conditions: pair with 34678; CD34+ cells; 3.52X gamma mRNA.
Series [10] relates to ZFN 34363 (gamma globin -175) (synthetic). Conditions: pair with 34360; K562, Cel-I.
Series [11] has as its system TALEN 101301 (BCL11A exon 4) (synthetic). To be noted: pair with 101304; CD34+ cells; 2.31X gamma mRNA.
For series [12], the system named is ZFN 39145 (BCL11A exon 2) (synthetic). Conditions: pair with 39172; CD34+ cells; 3.65X gamma mRNA.
For series [13], the system named is ZFN 44489 (BCL11A exon 2) (synthetic). Conditions: pair with 39172; K562.
In series [14] the test system is ZFN 44490 (BCL11A exon 2) (synthetic). Conditions: pair with 39172; K562.
For series [15], the system named is ZFN 44493 (BCL11A exon 2) (synthetic). Conditions: pair with 39172; K562.
Series [16] relates to ZFN 45081 (BCL11A exon 2) (synthetic). Conditions: pair with 39172; K562.
The subject of series [17] is ZFN 44944 (BCL11A-XL) (synthetic). Conditions: pair with 44945; K562.
Series [18] deals with ZFN 44946 (BCL11A-XL) (synthetic). Conditions: pair with 44947; K562.
Series [19] concerns ZFN 44947 (BCL11A-XL) (synthetic). Conditions: pair with 44946; K562.
The test system of series [20] is ZFN 44889 (BCL11A-XL) (synthetic). To be noted: pair with 44888; K562.
In series [21] the test system is ZFN 39172 (BCL11A exon 2) (synthetic). To be noted: pair with 39145; CD34+ cells; 3.65X gamma mRNA.
Series [22] has as its system ZFN 43490 (BCL11A exon 2) (synthetic). Conditions: pair with 39145; K562.
For series [23], the system named is ZFN 44642 (BCL11A exon 2) (synthetic). Conditions: pair with 39145; K562.
The test system of series [24] is ZFN 45147 (BCL11A exon 2) (synthetic). To be noted: pair with 39145; K562; printed as 41547 in Table 1B, 45147 in Table 1A.
In series [25] the test system is ZFN 45148 (BCL11A exon 2) (synthetic). To be noted: pair with 39145; K562; printed as 41548 in Table 1B, 45148 in Table 1A.
Series [26] concerns ZFN 44910 (BCL11A-XL) (synthetic). To be noted: pair with 44911; K562.
Series [27] has as its system TALEN 101292 (BCL11A exon 2) (synthetic). Conditions: pair with 101291; K562, Cel-I.
The test system of series [28] is ZFN 34365 (gamma globin -175) (synthetic). To be noted: pair with 31160; K562; 45.22% in CD34+; 1.63X gamma mRNA.
Series [29] has as its system ZFN 34400 (gamma globin -175) (synthetic). Conditions: pair with 34398; K562, Cel-I.
Series [30] relates to TALEN 101291 (BCL11A exon 2) (synthetic). Conditions: pair with 101292; K562, Cel-I.
Series [31] has as its system ZFN 36085 (KLF1 exon 2) (synthetic). To be noted: pair with 36071; CD34+ cells; 3.17X gamma mRNA.
The test system of series [32] is ZFN 44905 (BCL11A-XL) (synthetic). Conditions: pair with 44904; K562.
Series [33] relates to ZFN 44911 (BCL11A-XL) (synthetic). Conditions: pair with 44910; K562.
In series [34] the test system is ZFN 34574 (gamma globin -110) (synthetic). Conditions: pair with 34539; CD34+ cells; 5.38X gamma mRNA.
Series [35] relates to ZFN 43865 (gamma globin -110) (synthetic). Conditions: pair with 43852; CD34+ cells.
For series [36], the system named is ZFN 36004 (KLF1 exon 1) (synthetic). Conditions: pair with 36021; CD34+ cells; 2.2X gamma mRNA.
Series [37] relates to ZFN 36071 (KLF1 exon 2) (synthetic). Conditions: pair with 36085; CD34+ cells; 3.17X gamma mRNA.
In series [38] the test system is TALEN 102314 (gamma globin promoter) (synthetic). To be noted: pair with 102318; K562, Cel-I; 2.14X gamma mRNA in CD34+.
The subject of series [39] is TALEN 102315 (gamma globin promoter) (synthetic). Conditions: pair with 102320; K562, Cel-I.
Series [40] relates to TALEN 102316 (gamma globin promoter) (synthetic). Conditions: pair with 102321; K562, Cel-I.
Series [41] deals with TALEN 101304 (BCL11A exon 4) (synthetic). To be noted: pair with 101301; CD34+ cells; 2.31X gamma mRNA.
Series [42] deals with TALEN 102566 (gamma globin -110) (synthetic). To be noted: pair with 102568; CD34+ cells, MiSeq; 6.25X gamma mRNA.
Series [43] deals with ZFN 31160 (gamma globin -175) (synthetic). Conditions: pair with 34365; K562; 45.22% in CD34+; 1.63X gamma mRNA.
In series [44] the test system is ZFN 44904 (BCL11A-XL) (synthetic). Conditions: pair with 44905; K562.
For series [45], the system named is ZFN 34539 (gamma globin -110) (synthetic). To be noted: pair with 34574; CD34+ cells; 5.38X gamma mRNA.
In series [46] the test system is ZFN 43852 (gamma globin -110) (synthetic). Conditions: pair with 43865; CD34+ cells.
Series [47] has as its system ZFN 34360 (gamma globin -175) (synthetic). To be noted: pair with 34363; K562, Cel-I.
The test system of series [48] is ZFN 44888 (BCL11A-XL) (synthetic). To be noted: pair with 44889; K562.
For series [49], the system named is TALEN 102568 (gamma globin -110) (synthetic). To be noted: pair with 102566; CD34+ cells, MiSeq; 6.25X gamma mRNA.
In series [50] the test system is ZFN 34398 (gamma globin -175) (synthetic). Conditions: pair with 34400; K562, Cel-I.

As for “AAGCTCACCAGGCACATGAAAACGCATG (double strand) [BCL11A-XL 44945 site]”, the activity in series [1] is 24 % indels.
The sequence “AATCTGCCCAGGGCCTCACCACCAACTT (double strand) [HBB IVS1.1 43544 site]” had an activity in [2] of 52.6 % NHEJ.
“ACACACAGGATGACTTCCTCAAGGTGGG (double strand) [KLF1 exon 1 36021 site]” registered an activity in series [3] of 44.4 % indels.
In [4], “ATATTGCAGACAATAACCCCTTTAACCT (double strand) [BCL11A exon 4 34678 site]” displayed an activity of 82.2 % indels.
With “ATATTTGCATTGAGATAG (double strand) [HBG TALEN 102321 site]”, in series [5], the activity stood at 46.6 % NHEJ.
“ATATTTGCATTGAGATAGT (double strand) [HBG TALEN 102320 site]” had an activity in series [6] of 47.9 % NHEJ.
As for “ATATTTGCATTGAGATAGTGT (double strand) [HBG TALEN 102318 site]”, the activity in series [7] was found to be 41.6 % NHEJ.
With “ATCAAGGTTACAAGACAGGTTTAAGGAG (double strand) [HBB IVS1.1 43545 site]”, the activity in series [8] amounted to 52.6 % NHEJ.
“ATCCCATGGAGAGGTGGCTGGGAAGGAC (double strand) [BCL11A exon 4 34642 site]” displayed an activity in series [9] of 82.2 % indels.
Sequence “ATCTGTCTGAAACGGTCCCTGGCTAAAC (double strand) [HBG -175 34363 site]” yielded an activity in series [10] of 39 % NHEJ.
With “ATGTCCTTCCCAGCCACCTCT (double strand) [BCL11A exon 4 TALEN 101301 site]”, in series [11], the activity stood at 35.7 % indels.
“CCCAACGGGCCGTGGTCTGGTTCATCAT (double strand) [BCL11A exon 2 site, SEQ 170]”: the activity in series [12] is 69.8 % indels; in series [13], 24.3 % indels; in series [14] it was 29.4 % indels; in series [15], 25.7 % indels; in [16], 27.8 % indels.
“CTACTCTGGGCACAGGCATAGTTGCACA (double strand) [BCL11A-XL 44944/44946 site]”: the activity worked out at 24 % indels in series [17] and 34.2 % indels in series [18].
In the case of “CTCACCAGGCACATGAAAACGCATGGCC (double strand) [BCL11A-XL 44947 site]”, the activity in [19] amounted to 34.2 % indels.
In the case of “CTCACTGTCCACAGGAGAAGCCACACGG (double strand) [BCL11A-XL 44889 site]”, the activity in series [20] came out at 35.1 % indels.
For “CTCCAGAAGGGGATCATGACCTCCTCAC (double strand) [BCL11A exon 2 site, SEQ 160]”, the activity in series [21] was determined as 69.8 % indels; in series [22], 19.9 % indels; in series [23], 38.5 % indels; in [24], 35.6 % indels; in series [25], 42.3 % indels.
Sequence “CTCCTGTGGACAGTGAGATTGCTACAGT (double strand) [BCL11A-XL 44910 site]” gave an activity in series [26] of 36.4 % indels.
The sequence “CTCGATAAAAATAAGAATGT (double strand) [BCL11A exon 2 TALEN 101292 site]” had an activity in [27] of 0.8 % indels.
With “CTGTCTGAAACGGTCCCTGGCTAAACTC (double strand) [HBG -175 34400/34365 site]”, the activity was found to be 53 % NHEJ in series [28] and 54 % NHEJ in series [29].
As to “CTGTGGGCAGTGCCAGATGA (double strand) [BCL11A exon 2 TALEN 101291 site]”, in [30], the activity worked out at 0.8 % indels.
In the case of “CTTCTCGGGCCCGGAGCCCGGTGGCGCG (double strand) [KLF1 exon 2 36085 site]”, in [31], the activity turned out to be 22.6 % indels.
Take “GAGAAGCCACACGGGCGAAAGGCCTTAT (double strand) [BCL11A-XL 44905 site]”: in series [32], the activity came out at 25.4 % indels.
In the case of “GCCACACGGGCGAAAGGCCTTATAAATG (double strand) [BCL11A-XL 44911 site]”, in series [33], the activity was determined as 36.4 % indels.
Regarding “GCCTTGACAAGGCAAACTTGACCAATAG (double strand) [HBG -110 34574/43865 site]”, the activity in series [34] stood at 45.7 % NHEJ; in series [35], 56.1 % NHEJ.
In series [36], “GGGAAGGGGCCCAGGGCGGTCAGTGTGC (double strand) [KLF1 exon 1 36004 site]” displayed an activity of 44.4 % indels.
For the sequence “GGTGAGGAGGAGATCCAGGTCCCAGGTG (double strand) [KLF1 exon 2 36071 site]”, the activity in series [37] amounted to 22.6 % indels.
“GTATCCTCTTGGGGGCC (double strand) [HBG TALEN 102314 site]”: the activity in series [38] was 41.6 % NHEJ.
Sequence “GTATCCTCTTGGGGGCCC (double strand) [HBG TALEN 102315 site]” had an activity in series [39] of 47.9 % NHEJ.
Consider “GTATCCTCTTGGGGGCCCC (double strand) [HBG TALEN 102316 site]”, for which the activity in series [40] is 46.6 % NHEJ.
As to “GTTAAAGGGGTTATTGTCT (double strand) [BCL11A exon 4 TALEN 101304 site]”, in [41], the activity worked out at 35.7 % indels.
“GTTGGCCAGCCTTGCCTTGAC (double strand) [HBG -110 TALEN 102566 site]” returned an activity in series [42] of 51.4 % NHEJ.
As for “TATTTGCATTGAGATAGTGTGGGGAAGG (double strand) [HBG -175 31160 site]”, the activity in series [43] worked out at 53 % NHEJ.
The sequence “TGGACAGTGAGATTGCTACAGTTCTTGA (double strand) [BCL11A-XL 44904 site]” yielded an activity in [44] of 25.4 % indels.
On to “TGGTCAAGGCAAGGCTGGCCAACCCATG (double strand) [HBG -110 34539/43852 site]”, for which the activity in series [45] was found to be 45.7 % NHEJ; in [46] it was 56.1 % NHEJ.
Take “TTGCATTGAGATAGTGTGGGGAAGGGGC (double strand) [HBG -175 34360 site]”: the activity in series [47] stood at 39 % NHEJ.
In turn, “TTGCTACAGTTCTTGAAGACTTTCCCAC (double strand) [BCL11A-XL 44888 site]” showed an activity in [48] of 35.1 % indels.
“TTGGTCAAGTTTGCCTTGTCA (double strand) [HBG -110 TALEN 102568 site]” returned an activity in series [49] of 51.4 % NHEJ.
“TTTGCATTGAGATAGTGTGGGGAAGGGG (double strand) [HBG -175 34398 site]”: the activity in series [50] is 54 % NHEJ.

(Values after patent US9650648.)
